# According to PMC2814526 (Journal of immunology (Baltimore, Md. : 1950), 2009):
# Key:
# [1] = molecular target: mouse IL-15 receptor complex (mIL-15Rα-mIL-15Rβ-mγc) on CTLL-2 cells (mouse) (UniProt Q60819)
# [2] = molecular target: hIL-15Rβ-mγc on 32Dβ cells (human | mouse (endogenous in 32D)) (UniProt P14784)
# [3] = molecular target: hIL-15Rα and hγc on TF-1 cells (human (endogenous in TF-1)) (UniProt Q13261); assay: flow cytometry on cells
# [4] = molecular target: hIL-15Rβ-mγc on 32Dβ cells (human | mouse (endogenous in 32D)) (UniProt P14784); remark: listed apart in the source
# [5] = molecular target: hIL-15Rβ-mγc on 32Dβ cells (human | mouse (endogenous in 32D)) (UniProt P14784); remark: listed apart in the source
# [6] = molecular target: hIL-15Rα-hIL-15Rβ-hγc complex on TF-1β cells (human (endogenous in TF-1) | human) (UniProt Q13261)
# [7] = molecular target: c264scTCR/hIL-15 fusion protein (human, UniProt P40933 49-162); assay: ELISA
# recombinant human IL-15 = recombinant human IL-15 (human, UniProt P40933 49-162); assay: ELISA
# hIL-15Rβ-mγc on 32Dβ cells (human | mouse (endogenous in 32D)), sequence (P14784 27-551, chain 1 of 2): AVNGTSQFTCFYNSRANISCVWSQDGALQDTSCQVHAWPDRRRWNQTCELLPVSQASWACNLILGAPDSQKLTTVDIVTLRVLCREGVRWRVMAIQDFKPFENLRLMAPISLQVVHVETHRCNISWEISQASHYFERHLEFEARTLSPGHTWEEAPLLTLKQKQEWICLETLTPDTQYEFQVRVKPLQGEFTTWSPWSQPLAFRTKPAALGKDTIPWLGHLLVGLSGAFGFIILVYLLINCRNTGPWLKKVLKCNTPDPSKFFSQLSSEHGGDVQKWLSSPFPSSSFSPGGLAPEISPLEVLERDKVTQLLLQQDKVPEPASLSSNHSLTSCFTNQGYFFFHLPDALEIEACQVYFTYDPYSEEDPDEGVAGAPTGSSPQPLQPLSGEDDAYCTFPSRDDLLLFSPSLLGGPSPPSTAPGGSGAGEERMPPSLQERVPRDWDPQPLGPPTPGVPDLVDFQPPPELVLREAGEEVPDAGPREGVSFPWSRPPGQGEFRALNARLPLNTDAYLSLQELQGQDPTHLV
# hIL-15Rβ-mγc on 32Dβ cells (human | mouse (endogenous in 32D)), sequence (P34902 23-369, chain 2 of 2, further chain): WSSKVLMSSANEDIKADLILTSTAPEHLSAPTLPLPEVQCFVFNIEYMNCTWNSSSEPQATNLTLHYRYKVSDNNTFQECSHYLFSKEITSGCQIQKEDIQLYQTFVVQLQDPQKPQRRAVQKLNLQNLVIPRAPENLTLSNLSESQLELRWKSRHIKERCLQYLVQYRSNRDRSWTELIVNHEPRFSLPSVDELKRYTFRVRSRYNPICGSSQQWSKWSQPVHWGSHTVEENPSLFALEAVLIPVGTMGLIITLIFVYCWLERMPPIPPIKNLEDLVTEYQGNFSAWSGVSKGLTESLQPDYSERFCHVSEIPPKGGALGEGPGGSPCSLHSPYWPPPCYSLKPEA
# mouse IL-15 receptor complex (mIL-15Rα-mIL-15Rβ-mγc) on CTLL-2 cells (mouse), sequence (Q60819 33-263, chain 1 of 3): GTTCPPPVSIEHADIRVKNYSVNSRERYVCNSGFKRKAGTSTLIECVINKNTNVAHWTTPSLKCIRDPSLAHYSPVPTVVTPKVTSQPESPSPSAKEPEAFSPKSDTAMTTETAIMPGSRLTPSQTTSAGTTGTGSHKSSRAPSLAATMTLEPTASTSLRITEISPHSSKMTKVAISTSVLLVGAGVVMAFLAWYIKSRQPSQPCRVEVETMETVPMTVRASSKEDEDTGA
# mouse IL-15 receptor complex (mIL-15Rα-mIL-15Rβ-mγc) on CTLL-2 cells (mouse), sequence (P16297 27-539, chain 2 of 3, further chain): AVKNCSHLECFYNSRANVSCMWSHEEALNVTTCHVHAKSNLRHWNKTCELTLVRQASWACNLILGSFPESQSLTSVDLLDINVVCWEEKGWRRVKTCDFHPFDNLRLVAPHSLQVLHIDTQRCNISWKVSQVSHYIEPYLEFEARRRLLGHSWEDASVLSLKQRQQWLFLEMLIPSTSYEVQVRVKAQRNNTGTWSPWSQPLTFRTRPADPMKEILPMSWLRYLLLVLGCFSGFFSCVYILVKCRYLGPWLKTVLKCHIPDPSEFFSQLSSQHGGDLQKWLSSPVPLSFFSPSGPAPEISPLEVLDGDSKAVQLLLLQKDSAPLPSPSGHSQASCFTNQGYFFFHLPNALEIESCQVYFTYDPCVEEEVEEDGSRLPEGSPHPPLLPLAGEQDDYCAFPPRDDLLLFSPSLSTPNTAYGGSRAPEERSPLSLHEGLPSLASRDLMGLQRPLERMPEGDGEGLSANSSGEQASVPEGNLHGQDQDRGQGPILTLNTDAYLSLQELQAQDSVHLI
# mouse IL-15 receptor complex (mIL-15Rα-mIL-15Rβ-mγc) on CTLL-2 cells (mouse), sequence (P34902 23-369, chain 3 of 3, further chain): as the sequence (P34902 23-369, chain 2 of 2, further chain) above
Molecule,"EC50 of CTLL-2 cell proliferation (WST-1, 48 h) [1]","EC50 of 32Dβ cell proliferation (WST-1, 48 h) [2]",IC50 [3],"EC50 on 32Dβ cell proliferation, rhIL-15N72D alone [4]","EC50 of the decrease in apoptosis of 32Dβ cells (Annexin V, 48 h) [5]","EC50 of TF-1β cell proliferation (WST-1, 48 h) [6]",binding result [7],binding result (recombinant human IL-15)
c264scTCR/hIL-15N72D fusion protein (ligand),18.4 pM,79 pM,–,–,–,–,–,–
recombinant human IL-15 N72D mutein (ligand),9.2 pM,39.9 pM,0.0175 nM,16.2 pM,7.8 pM,4.8 pM,–,–
"c264scTCR/hIL-15RαSu fusion protein (domain or fragment, human, UniProt Q13261 31-95, looked up) ITCPPPMSVEHADIWVKSYSLYSRERYICNSGFKRKAGTSSLTECVLNKATNVAHWTTPSLKCIR",–,–,–,–,–,–,binds,binds
